According to article PMC4854314, “RNA protects a nucleoprotein complex against radiation damage” (Acta Crystallographica. Section D, Structural Biology, 2016):

Target: the molecule itself
Assay: crystal structure; TRAP-RNA crystals, hanging drop, 2:1 molar ratio of TRAP to RNA, 70 mM potassium phosphate pH 7.8, 10 mM L-tryptophan; data collected at 100 K, 1.98 Å; asymmetric unit holds one RNA-bound and one non-RNA-bound TRAP ring

B1: trp RNA-binding attenuation protein (TRAP) from B. stearothermophilus (natural protein)
chain: MYTNSDFVVIKALEDGVNVIGLTRGADTRFHHSEKLDKGEVLIAQFTEHTSAIKVRGKAYIQTRHGVIESEGKK
notes: construct as in Hopcroft et al., 2002 (PDB 1gtf); 11 identical subunits form a ring; also called TRAP ring; source: overexpressed in Escherichia coli and purified; copies: 11
  stoichiometry N: 11
